B1: SX13-1 (CAR42) (antibody)
chain: QLVESGGGLVKPGGSLRLSCAASGFTFSDYSMNWVRQAPGKGLEWVSSISSSSRYKYYADSMKGRFTISRDNAKNSLYLQMNSLRVEDTAVYYCTRGIDYFDYWGQGTLVTVSSSGGGGSGGGGSGGGGSDIQLTQSPSFLSASVGDRVTITCRASQDINNYLAWYQQKPGKAPKFLIHVASTLQSGVPSRFSGSGSGTEFTLTISSLQPEDSATYYCQQLNSYPRTFGQGTKVEIK
B2: SX13-12 (CAR49) (antibody)
chain: QLVESGGGLVKPGGSLRLSCAASGFTFSDYSMNWVRQAPGKGLNWVASISSSSHYKYYADSVKGRFTISRDNAKNSLYLQMNSLRAEDTAVYYCARGIDFFDIWGQGTMVTVSSSGGGGSGGGGSGGGGSDIQLTQSPSFLSASVGDRVTITCRASQDINSYLVWYQQKPGKAPKLLIYTASTLQSGVPSRFSGSGSGTEFTLTIRSLQPEDFATYYCQQLNSYPRTFGQGTKVEIK
B3: SX13-10 (CAR48) (antibody)
chain: QLLESGGGLVKPGGSLRLSCAASGFTFSRYNMNWVRQAPGKGLEWVSFISGSSSYVYYADSVKGRFTISKDNAKNSLYLQMNSLRAEDTAVYYCARSGYCTSTTCYNYYYYYMDVWGKGTTVTVSSSGGGGSGGGGSGGGGSEIVLMQSPGTLSLSPGERATLSCRASQSVSNSYLAWYQQKPGQAPRLLIYGASSRATGIPDRFSGSGSGTDFTLTISRLEPEDFAVFYCQQFGSSPLTFGGGTKVEIK
B4: SX13-7 (CAR46) (antibody)
chain: QLVESGGGLVKPGGSLRLSCAASGFTFSDYSMNWVRQAPGKGLEWVSSISSSSSYKKYADSVKGRLTISRDNAKNSLYLQMNSLRAEDTAVYYCARGIDYFDYWGQGTLVTVSSSGGGGSGGGGSGGGGSDIQLTQSPSFLSASVGDRVTITCRASQGISSNLAWYQQKPGKDPKVLIYGASTLQSGVPSRFSGSGSGTEFTLTISSLQPEDFATYYCQQLNSYPRTFGQGTKVEIK

Each binder was assayed against ENPP3 (human).
ENPP3 (human), sequence (chain, as listed by the source): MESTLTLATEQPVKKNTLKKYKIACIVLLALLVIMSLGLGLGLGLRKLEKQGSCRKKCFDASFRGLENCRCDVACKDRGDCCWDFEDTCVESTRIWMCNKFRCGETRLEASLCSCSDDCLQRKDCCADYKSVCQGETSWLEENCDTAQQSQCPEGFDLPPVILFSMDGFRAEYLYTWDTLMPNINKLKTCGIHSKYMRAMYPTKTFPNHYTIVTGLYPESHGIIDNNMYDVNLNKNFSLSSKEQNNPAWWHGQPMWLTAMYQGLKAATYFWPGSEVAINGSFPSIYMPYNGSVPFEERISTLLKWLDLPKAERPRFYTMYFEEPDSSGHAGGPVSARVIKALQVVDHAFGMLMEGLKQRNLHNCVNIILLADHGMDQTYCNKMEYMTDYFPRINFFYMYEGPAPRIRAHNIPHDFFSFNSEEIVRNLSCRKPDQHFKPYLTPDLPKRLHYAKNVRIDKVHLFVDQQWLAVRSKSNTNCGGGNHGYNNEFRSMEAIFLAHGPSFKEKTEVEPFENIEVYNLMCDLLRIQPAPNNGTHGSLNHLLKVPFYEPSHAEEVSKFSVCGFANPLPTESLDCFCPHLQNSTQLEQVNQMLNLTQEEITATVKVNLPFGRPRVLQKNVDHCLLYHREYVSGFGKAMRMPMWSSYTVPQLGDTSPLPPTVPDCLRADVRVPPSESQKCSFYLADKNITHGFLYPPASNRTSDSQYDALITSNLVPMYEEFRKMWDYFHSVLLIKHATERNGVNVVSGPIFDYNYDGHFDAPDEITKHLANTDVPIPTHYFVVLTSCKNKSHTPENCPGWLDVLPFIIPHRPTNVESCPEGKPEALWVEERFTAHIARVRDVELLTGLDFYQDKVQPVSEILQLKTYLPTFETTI
Work on B1 yielded a Kd of 18.9 nM. Binder B2 has a Kd of 23.5 nM. B3 gave a Kd of 113 nM. Work on B4 yielded a Kd of 4.24 nM.
